Results taken from the supplement of paper PMC10567573.
± gives the standard deviation.

Test: protein stability index of a GFP-peptide fusion (GPS, HEK-293T) (PSI 1-6); higher = more stable
[1] = treatment: DMSO, c terminus: a fixed tail appended
[2] = treatment: MLN4924 1 uM, 8 h, c terminus: a fixed tail appended
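Further: 24-mer peptide tiles fused after GFP, lentivirally expressed, FACS-sorted into six equal bins by GFP/DsRed ratio, decoded by Illumina sequencing, PSI is the read-weighted mean bin number.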

| Sequence | protein stability index [1] | protein stability index [2] | protein stability index (treatment: DMSO, c terminus: native) | protein stability index (treatment: MLN4924 1 uM, 8 h, c terminus: native) |
| --- | --- | --- | --- | --- |
| QLWELGKVLRKAGLSAGYVDAGAE [LPCAT4] | 2.13 ± 0.27 | 2.13 ± 0.36 | – | – |
| QNCKKKLGKLPPQYALELLTVYAW [OAS1] | 2.6 ± 0.58 | 2.25 ± 0.64 | – | – |
| QNLYFNCSSPGVQACSLPASCCID [TSPAN10] | 3.12 ± 0.22 | 3.25 ± 0.2 | – | – |
| QNRRAKLKRSHRESQFLMAKKNFN [HESX1] | 3.43 ± 0.24 | 3.48 ± 0.43 | – | – |
| QNVDVNVHPTKHEVHFLHEESILE [MLH1] | 4.72 ± 0.19 | 4.75 ± 0.056 | – | – |
| QNVRNHIHSCFSDVTCFLLPHPGL [ATL3] | 2.49 ± 0.65 | 2.29 ± 0.55 | – | – |
| QPADVFPRLFKEWNITKLSIEYDS [CRY1] | 2.7 ± 0.32 | 2.92 ± 0.3 | – | – |
| QPGLSFLNLGSGTGYLSTMVGLIL [PCMTD1] | 2.15 ± 0.29 | 2.2 ± 0.31 | – | – |
| QPKEPQLTCDSAQKCHSIGETDEV [ZSCAN9] | 5.43 ± 0.22 | 5.57 ± 0.21 | – | – |
| QPLNFVRFYLPLLIHQHEKVIYLD [GLT8D2] | 3.02 ± 0.59 | 3.03 ± 0.69 | – | – |
| QPPPPRRVTNVGSLLLTPQENESL [WASL] | 4.73 ± 0.083 | 4.66 ± 0.27 | – | – |
| QPPTTTVARSGTPAVENKQQIGDA [PLK2] | 5.4 ± 0.16 | 5.37 ± 0.37 | – | – |
| QQKWTKPARAGSEVEWTEDLALDL [C2CD2L] | 4.37 ± 0.27 | 4.48 ± 0.28 | – | – |
| QQYQEQLDKSTKLVETAIQSLDEP [TRIM63] | 5.1 ± 0.32 | 5.07 ± 0.086 | – | – |
| QRQVWLLFEYPESSGPARGIAIVS [KCNA3] | 2.69 ± 0.21 | 2.48 ± 0.77 | – | – |
| QRTHTGEKPYGCIDCGKAFSQKSC [ZNF649] | 3.47 ± 0.27 | 3.87 ± 0.23 | – | – |
| QSGATISMPCSTDKENGENVGLES [SASS6] | 5.55 ± 0.22 | 5.43 ± 0.27 | – | – |
| QSQLICILKRRSDEALERCQILEL [CCDC89] | 2.52 ± 0.14 | 2.04 ± 0.44 | – | – |
| QTEKTTRVRTVLNEKQLHTLRTCY [ISL2] | 2.66 ± 0.24 | 2.8 ± 0.33 | – | – |
| QTMLSHYRPFYVNKGNGIGSNEAP [TRIM29] | 2.97 ± 0.27 | 3.17 ± 0.2 | – | – |
| QTWNNSTWSNQTQNIQSWSNHSWN [NANOGP8] | 2.36 ± 0.24 | 2.46 ± 0.28 | – | – |
| QTYQPPWKALSEFALQSDLDQPAF [ISL2] | 2.96 ± 0.28 | 3.04 ± 0.21 | – | – |
| QVLEMKNQQIHEQEKKILELEKLA [MTUS2] | 4.68 ± 0.31 | 4.62 ± 0.45 | – | – |

| Sequence | protein stability index [1] | protein stability index [2] | protein stability index (treatment: DMSO, c terminus: native) | protein stability index (treatment: MLN4924 1 uM, 8 h, c terminus: native) |
| --- | --- | --- | --- | --- |
| QYQTVRYDILPLSPVSRNRLAQVK [CTDNEP1] | 3.02 ± 0.19 | 3.04 ± 0.29 | – | – |
| RAEPYPTSRFGSQCMQPNNIMGIE [NR2F2] | 2.84 ± 0.15 | 2.81 ± 0.18 | – | – |
| RAVIAWMEKIPFVLGGNLQGGELV [CPXM2] | – | 2.36 ± 0.63 | – | – |
| RDPAAGAAPFRFVARPVRFPREHQ [ZNF511] | 2.61 ± 0.72 | 3.23 ± 0.68 | – | – |
| RDTRDYAPPPRDYTYRDYGHSSSR [RBMX] | 4.01 ± 0.14 | 3.65 ± 0.77 | – | – |
| REETPRMPSWASARDRQPSDFKTD [ELOA2] | 4.96 ± 0.18 | 5.03 ± 0.38 | – | – |
| REKEDYLHLKRQPKRRWLFWNSPS [RHOBTB2] | 2.42 ± 0.23 | 2.56 ± 0.18 | – | – |
| RELLMNHRRGLGVDSKPELQRVLE [FAM107A] | 3.95 ± 0.18 | 4.09 ± 0.14 | – | – |
| RERNMAPDLRQDFNMMEQKKRVSM [ADD1] | 4.53 ± 0.11 | 4.5 ± 0.092 | – | – |
| RFEEGGRRKCGQYWPLEKDSRIRF [PTPN9] | 3.04 ± 0.36 | 2.88 ± 0.33 | – | – |
| RGEALGLVGAQAPATEEQEAASSS [MAGEA3] | 5.61 ± 0.27 | 5.62 ± 0.1 | – | – |
| RGFAFVTFESPADAKDAARDMNGK [RBMX] | 4.12 ± 0.16 | 4.19 ± 0.26 | – | – |
| RHAEQQALRLEVRAGPDSAGIALY [CARM1] | 2.54 ± 0.43 | 2.81 ± 0.7 | – | – |
| RHCPELAEMSRVSIRILDELVLPF [HNF4A] | 2.12 ± 0.13 | 2.31 ± 0.38 | – | – |
| RHQKIHSGEKPYKCSDCGKAFLTK [ZNF649] | 3.07 ± 0.069 | 3.25 ± 0.31 | – | – |
| RHSYQVYRQPIPVQELVLEDLQDG [NET1] | 4.38 ± 0.083 | 4.24 ± 0.24 | – | – |
| RIYRMIKLGLGIDEDEVAAEEPNA [HSP90AB1] | 2.95 ± 0.24 | 3.19 ± 0.38 | – | – |
| RKTHVLLGRSHDTVQEAATSRRAR [MFSD9] | 4.64 ± 0.41 | 4.73 ± 0.27 | – | – |
| RLAAIAQEKDQEMERLRELQRASI [FBF1] | 4.34 ± 0.17 | 4.43 ± 0.22 | – | – |
| RLDFFEKPDYEYLRTLFTDLFEKK [CSNK1G1] | 2.54 ± 0.38 | 2.77 ± 0.41 | – | – |
| RLNKLRLESEGSPETLTNLRKGYL [HACD3] | 3.25 ± 0.23 | 3.35 ± 0.33 | – | – |
| RLQGLEADCVRGPDGVCLSGGRGP [PBXIP1] | 4.4 ± 0.082 | 4.24 ± 0.32 | – | – |
| RNRKLKCTFSLTHPANRSCRETGS [SLC22A15] | 3.37 ± 0.16 | 3.44 ± 0.23 | – | – |

| Sequence | protein stability index [1] | protein stability index [2] | protein stability index (treatment: DMSO, c terminus: native) | protein stability index (treatment: MLN4924 1 uM, 8 h, c terminus: native) |
| --- | --- | --- | --- | --- |
| RNRPSFDAILYYYQSGGRLKRPVN [KCNA4] | 2.08 ± 0.27 | 2.42 ± 0.5 | – | – |
| RPATEAELLTCHSAEYVGHLRATE [HDAC6] | 4.1 ± 0.2 | 3.85 ± 0.19 | – | – |
| RPDKALSEGDLKNAIRVHHALATR [PSD2] | 4.07 ± 0.1 | 4.31 ± 0.3 | – | – |
| RPSQYRPDGLRSGDGVPPRSLQDG [LCOR] | 4.83 ± 0.091 | 4.85 ± 0.17 | – | – |
| RPTSCWQLDWDELETNQQHFHALC [M1AP] | 2.39 ± 0.21 | 2.77 ± 0.38 | – | – |
| RQAVAWLVAMHKAAKLLYESRDQ [ZFYVE21] | – | – | 2.95 ± 1.1 | 2.28 ± 0.3 |
| RQFLPEEFMKTLEKTGPQLTSRIK [DENND6A] | 3.55 ± 0.33 | 3.58 ± 0.43 | – | – |
| RQSYDISIVAQVDQTGSKSSNLLD [CARM1] | 3.93 ± 0.092 | 4.07 ± 0.17 | – | – |
| RRLLRRLSPSRGVAQCLRDLVAMQ [ZSWIM9] | 2.49 ± 0.36 | 2.89 ± 0.32 | – | – |
| RRQLEACQRERAFSVKFEVQAPRW [OAS1] | 2.75 ± 0.23 | 2.93 ± 0.18 | – | – |
| RSNTLRERSQVRGSAPPRATPGGG [PCDHGC5] | 4.68 ± 0.17 | 4.47 ± 0.28 | – | – |
| RSQKHKERIRLLRQKREAAARKKY [C18orf25] | 4.17 ± 0.34 | 4.36 ± 0.31 | – | – |
| RSRREQFSRAPVSALPLAPNHLGG [STX5] | 3.46 ± 0.15 | 3.77 ± 0.31 | – | – |
| RSVRVRLLLSFWKETDPLTFNFIS [PLD5] | 2.89 ± 0.71 | 2.54 ± 0.18 | – | – |
| RTITFEQFQEALEELAKKRFKDKS [TPPP] | 2.54 ± 0.11 | 2.74 ± 0.43 | – | – |
| RVFLFQAPSKEEMLSWILRINLVA [PSD2] | 2.64 ± 0.54 | 2.7 ± 0.46 | – | – |
| RVIKCDPDCLRACQEQIEALLESS [CCND1] | 3.3 ± 0.3 | 3.19 ± 0.2 | – | – |
| RVMPTQEVQELPIPSKLLEFLSYR [WSB1] | 2.94 ± 0.26 | 2.95 ± 0.24 | – | – |
| RVQAALVWERPARSALWCLGLNAA [RETREG3] | 2.1 ± 0.71 | 2.38 ± 0.14 | – | – |
| RVRRFQVVEVTKGILEHVDSASPV [M1AP] | 3.36 ± 0.2 | 3.37 ± 0.17 | – | – |
| RYLGRPPSPTSPPPPELMDVSLVG [DYRK1B] | 3.98 ± 0.26 | 4.07 ± 0.29 | – | – |
| SAAGIEARSRALRRRWCPAGIMLL [SPACA3] | 2.3 ± 0.11 | 2.38 ± 0.15 | – | – |
| SAAVPAGQTYVDAGYEVDKIAQNL [CHIT1] | 4.39 ± 0.3 | 4.61 ± 0.46 | – | – |

| Sequence | protein stability index [1] | protein stability index [2] | protein stability index (treatment: DMSO, c terminus: native) | protein stability index (treatment: MLN4924 1 uM, 8 h, c terminus: native) |
| --- | --- | --- | --- | --- |
| SALPLAPNHLGGGAVVLGAESHAS [STX5] | 4.22 ± 0.32 | 4.32 ± 0.53 | – | – |
| SAQRSKDPNSQVGACIVNSENKIV [DCTD] | 4.91 ± 0.17 | 4.98 ± 0.12 | – | – |
| SASVIFEGVDIKNGTEDLPYAMKP [NSDHL] | 4.39 ± 0.12 | 4.28 ± 0.26 | – | – |
| SCNDSKLEFRSFWELIGEAAKSVK [S100A14] | 2.18 ± 0.21 | 2.11 ± 0.52 | – | – |
| SCTTRLCQEEQLRSHENKLRQLTA [PSD2] | 3.6 ± 0.22 | 3.79 ± 0.33 | – | – |
| SDLFRLQEYNIPGVIQSVIGWKTV [CDS2] | 2.28 ± 0.26 | 2.1 ± 0.28 | – | – |
| SDLFSLAEEYEDSSTKPPKSRRKA [INTS3] | 5.15 ± 0.34 | 5.33 ± 0.36 | – | – |
| SDNMSHLMVDFAQERQMLQALKFL [FSD1] | 2.55 ± 0.3 | 2.49 ± 0.23 | – | – |
| SDSESKPDQEAEPQEAAGAQGRAG [EPB41L3] | 5.54 ± 0.37 | 5.63 ± 0.22 | – | – |
| SERAEVQRLEEQERRHREEKERRK [RSPH3] | 5.31 ± 0.47 | 5.673 ± 0.05 | – | – |
| SESSGQTHLEGDTVQIICNTGYRL [CFHR2] | 3.34 ± 0.21 | 3.48 ± 0.38 | – | – |
| SESTNTTIEDEDTKVRKQEIIKVT [CAMK2A] | 5.32 ± 0.24 | 5.31 ± 0.18 | – | – |
| SFGFPRTVKHIDAALSEENTGKTY [MMP1] | 4.13 ± 0.25 | 3.94 ± 0.16 | – | – |
| SFGQVVKAYDHQTQELVAIKIIKN [DYRK1B] | 2.76 ± 0.31 | 2.97 ± 0.2 | – | – |
| SFTTNEKAILEQNFRDLVRDLEKQ [TRIM29] | 3.97 ± 0.19 | 4.19 ± 0.2 | – | – |
| SGADFHKKDKCGRTPLHYAAANCH [ANKRD44] | 3.42 ± 0.44 | 3.32 ± 0.27 | – | – |
| SGDPPLSSNVSLSLFVLDQNDNAP [PCDHGA10] | 3.63 ± 0.09 | 3.59 ± 0.27 | – | – |
| SGPPASYCAKLCEPQWFYEETESS [C8orf76] | 4.02 ± 0.12 | 4.37 ± 0.19 | – | – |
| SGSAGQYGSDQQHHLGSGSGAGGT [MYOZ1] | 4.98 ± 0.21 | 5.12 ± 0.29 | – | – |
| SGTPQAGTPSPSRSRDSNSGPEEP [RTN2] | 5.35 ± 0.068 | 5.48 ± 0.28 | – | – |
